Results taken from PMC2756588.

T1: Lsb4, P32793
T1 sequence (P32793 402-468, looked up): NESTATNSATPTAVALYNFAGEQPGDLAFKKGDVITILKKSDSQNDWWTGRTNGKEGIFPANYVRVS

T2: Hof1, Q05080
T2 sequence (Q05080 590-669, looked up): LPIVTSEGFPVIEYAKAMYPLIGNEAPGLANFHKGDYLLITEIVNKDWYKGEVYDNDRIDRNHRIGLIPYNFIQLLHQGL

T3: Lsb1, P53281
T3 sequence (P53281 45-122, looked up): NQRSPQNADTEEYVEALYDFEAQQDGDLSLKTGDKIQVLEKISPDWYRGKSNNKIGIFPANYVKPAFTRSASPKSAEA

T4: Abp1, P15891
T4 sequence (P15891 535-592, looked up): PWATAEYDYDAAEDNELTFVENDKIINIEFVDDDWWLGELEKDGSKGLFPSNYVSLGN

T5: Hse1, P38753
T5 sequence (P38753 208-285, looked up): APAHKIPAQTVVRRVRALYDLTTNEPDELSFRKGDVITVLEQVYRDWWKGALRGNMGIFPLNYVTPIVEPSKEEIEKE

T6: Boi2, P39969
T6 sequence (P39969 32-116, looked up): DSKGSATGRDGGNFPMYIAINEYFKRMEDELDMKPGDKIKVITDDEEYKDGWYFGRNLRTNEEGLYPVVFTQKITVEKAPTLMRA

T7: Bzz1-2, P38822
T7 sequence (P38822 568-633, looked up): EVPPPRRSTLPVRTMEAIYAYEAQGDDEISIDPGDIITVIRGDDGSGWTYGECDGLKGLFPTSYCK

T8: Nbp2, Q12163
T8 sequence (Q12163 103-180, looked up): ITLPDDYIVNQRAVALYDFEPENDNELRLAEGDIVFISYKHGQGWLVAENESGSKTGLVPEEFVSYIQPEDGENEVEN

T9: Sla1-2, P32790
T9 sequence (P32790 60-140, looked up): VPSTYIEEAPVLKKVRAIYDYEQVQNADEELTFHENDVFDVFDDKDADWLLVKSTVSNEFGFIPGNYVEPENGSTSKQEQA

T10: Myo5, Q04439
T10 sequence (Q04439 1072-1160, looked up): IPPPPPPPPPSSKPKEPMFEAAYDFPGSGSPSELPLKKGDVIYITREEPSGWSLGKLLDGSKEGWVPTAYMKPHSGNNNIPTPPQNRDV

T11: Fus1, P11710
T11 sequence (P11710 432-512, looked up): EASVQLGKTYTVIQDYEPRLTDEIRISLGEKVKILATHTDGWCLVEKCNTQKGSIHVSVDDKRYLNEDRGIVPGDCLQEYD

T12: Bud14, P27637
T12 sequence (P27637 247-328, looked up): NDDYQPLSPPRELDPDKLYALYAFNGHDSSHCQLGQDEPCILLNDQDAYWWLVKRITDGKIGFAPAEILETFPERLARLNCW

T13: Boi1, P38041
T13 sequence (P38041 1-86, looked up): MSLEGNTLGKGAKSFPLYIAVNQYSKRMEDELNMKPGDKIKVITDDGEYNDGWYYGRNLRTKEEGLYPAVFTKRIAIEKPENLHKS

T14: Bbc1, P47068
T14 sequence (P47068 1-78, looked up): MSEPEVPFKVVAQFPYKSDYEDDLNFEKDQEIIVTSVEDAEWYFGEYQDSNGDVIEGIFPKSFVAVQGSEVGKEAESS

T15: Cdc25, P04821
T15 sequence (P04821 50-136, looked up): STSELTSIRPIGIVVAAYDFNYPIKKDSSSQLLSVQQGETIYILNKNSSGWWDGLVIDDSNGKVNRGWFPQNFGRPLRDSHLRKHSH

T16: Sla1-3, P32790
T16 sequence (P32790 344-424, looked up): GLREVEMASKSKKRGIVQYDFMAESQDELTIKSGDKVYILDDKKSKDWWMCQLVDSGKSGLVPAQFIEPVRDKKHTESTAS

T17: Cyk3, Q07533
T17 sequence (Q07533 1-83, looked up): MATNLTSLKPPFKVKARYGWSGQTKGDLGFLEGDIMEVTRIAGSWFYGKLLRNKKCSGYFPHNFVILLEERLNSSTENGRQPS

T18: Lsb3, P43603
T18 sequence (P43603 385-451, looked up): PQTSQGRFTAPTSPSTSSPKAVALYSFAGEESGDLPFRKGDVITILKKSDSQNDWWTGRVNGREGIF

T19: Pin3, Q06449
T19 sequence (Q06449 53-122, looked up): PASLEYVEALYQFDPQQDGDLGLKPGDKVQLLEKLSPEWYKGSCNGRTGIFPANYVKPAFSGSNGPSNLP

T20: Bzz1-1, P38822
T20 sequence (P38822 478-572, looked up): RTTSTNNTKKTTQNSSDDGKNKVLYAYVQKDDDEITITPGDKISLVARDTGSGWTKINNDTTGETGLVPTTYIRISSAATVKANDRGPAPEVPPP

T21: Pex13, P80667
T21 sequence (P80667 295-386, looked up): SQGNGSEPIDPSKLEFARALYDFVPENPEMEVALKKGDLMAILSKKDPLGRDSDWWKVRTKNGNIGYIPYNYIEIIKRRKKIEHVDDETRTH

B1: unnamed (peptide)
chain: KRRTSLFPWLHKPGI
B2: unnamed (peptide)
chain: WRPRIVPILPYITRL
B3: unnamed (peptide)
chain: TKRKRPARLIFYDSK
B4: unnamed (peptide)
chain: KLSRGRYGLPLSSRP

What follows are binders tested against GST (assay: SPOT array). Conditions: median of control spots 978.

| SPOT intensity | Binder |
| --- | --- |
| 0 | B1 |
| 0 | B2 |
| 1 | B3 |
| 0 | B4 |

Each binder was assayed against T1, Lsb4, P32793 (assay: SPOT array). Conditions: median of control spots 397.

| SPOT intensity | Binder |
| --- | --- |
| 0 | B1 |
| 6 | B2 |
| 7 | B3 |
| 0 | B4 |

Each binder was assayed against T2, Hof1, Q05080 (assay: SPOT array). Conditions: median of control spots 4086.

| SPOT intensity | Binder |
| --- | --- |
| 5 | B1 |
| 770 | B2 |
| 4 | B3 |
| 8 | B4 |

What follows are binders tested against T3, Lsb1, P53281 (assay: SPOT array). Conditions: median of control spots 388.

| SPOT intensity | Binder |
| --- | --- |
| 0 | B1 |
| 22 | B2 |
| 4 | B3 |
| 175 | B4 |

What follows are binders tested against T4, Abp1, P15891 (assay: SPOT array). Conditions: median of control spots 935.

| SPOT intensity | Binder |
| --- | --- |
| 25 | B1 |
| 10 | B2 |
| 157 | B3 |
| 26 | B4 |

These binders were tested against T5, Hse1, P38753 (assay: SPOT array). Conditions: median of control spots 1727.

| SPOT intensity | Binder |
| --- | --- |
| 19 | B1 |
| 11 | B2 |
| 11 | B3 |
| 10 | B4 |

These binders were tested against T6, Boi2, P39969 (assay: SPOT array). Conditions: median of control spots 1161.

| SPOT intensity | Binder |
| --- | --- |
| 0 | B1 |
| 0 | B2 |
| 9 | B3 |
| 1 | B4 |

These binders were tested against T7, Bzz1-2, P38822 (assay: SPOT array). Conditions: median of control spots 4538.

| SPOT intensity | Binder |
| --- | --- |
| 3 | B1 |
| 0 | B2 |
| 5 | B3 |
| 7 | B4 |

What follows are binders tested against T8, Nbp2, Q12163 (assay: SPOT array). Conditions: median of control spots 357.

| SPOT intensity | Binder |
| --- | --- |
| 57 | B1 |
| 1 | B2 |
| 183 | B3 |
| 2 | B4 |

These binders were tested against Sho1, P40073 (assay: SPOT array). Conditions: median of control spots 1148.
Chain of Sho1, P40073 (P40073 287-367): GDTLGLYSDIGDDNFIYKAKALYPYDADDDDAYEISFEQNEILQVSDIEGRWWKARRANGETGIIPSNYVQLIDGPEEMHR

| SPOT intensity | Binder |
| --- | --- |
| 61 | B1 |
| 3 | B2 |
| 91 | B3 |
| 31 | B4 |

What follows are binders tested against T9, Sla1-2, P32790 (assay: SPOT array). Conditions: median of control spots 712.

| SPOT intensity | Binder |
| --- | --- |
| 0 | B1 |
| 0 | B2 |
| 2 | B3 |
| 1 | B4 |

What follows are binders tested against T10, Myo5, Q04439 (assay: SPOT array). Conditions: median of control spots 471.

| SPOT intensity | Binder |
| --- | --- |
| 0 | B1 |
| 0 | B2 |
| 3 | B3 |
| 0 | B4 |

These binders were tested against Rvs167, P39743 (assay: SPOT array). Conditions: median of control spots 2707.
Chain of Rvs167, P39743 (P39743 419-482): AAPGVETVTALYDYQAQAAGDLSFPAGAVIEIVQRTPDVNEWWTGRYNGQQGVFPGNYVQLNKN

| SPOT intensity | Binder |
| --- | --- |
| 0 | B1 |
| 36 | B2 |
| 0 | B3 |
| 3 | B4 |

The binders below were run against T11, Fus1, P11710 (assay: SPOT array). Conditions: median of control spots 1200.

| SPOT intensity | Binder |
| --- | --- |
| 31 | B1 |
| 8 | B2 |
| 29 | B3 |
| 3 | B4 |

The binders below were run against T12, Bud14, P27637 (assay: SPOT array). Conditions: median of control spots 956.

| SPOT intensity | Binder |
| --- | --- |
| 3 | B1 |
| 2 | B2 |
| 29 | B3 |
| 4 | B4 |

The binders below were run against T13, Boi1, P38041 (assay: SPOT array). Conditions: median of control spots 1162.

| SPOT intensity | Binder |
| --- | --- |
| 3 | B1 |
| 0 | B2 |
| 39 | B3 |
| 4 | B4 |

Each binder was assayed against T14, Bbc1, P47068 (assay: SPOT array). Conditions: median of control spots 796.

| SPOT intensity | Binder |
| --- | --- |
| 39 | B1 |
| 87 | B2 |
| 308 | B3 |
| 9 | B4 |

These binders were tested against T15, Cdc25, P04821 (assay: SPOT array). Conditions: median of control spots 969.

| SPOT intensity | Binder |
| --- | --- |
| 18 | B1 |
| 14 | B2 |
| 61 | B3 |
| 12 | B4 |

These binders were tested against T16, Sla1-3, P32790 (assay: SPOT array). Conditions: median of control spots 5475.

| SPOT intensity | Binder |
| --- | --- |
| 20 | B1 |
| 9 | B2 |
| 33 | B3 |
| 31 | B4 |

Each binder was assayed against Myo3, P36006 (assay: SPOT array). Conditions: median of control spots 468.

| SPOT intensity | Binder |
| --- | --- |
| 0 | B1 |
| 0 | B2 |
| 7 | B3 |
| 1 | B4 |

Each binder was assayed against T17, Cyk3, Q07533 (assay: SPOT array). Conditions: median of control spots 1451.

| SPOT intensity | Binder |
| --- | --- |
| 0 | B1 |
| 0 | B2 |
| 7 | B3 |
| 0 | B4 |

What follows are binders tested against Bem1-1, P29366 (assay: SPOT array). Conditions: median of control spots 4282.
Chain of Bem1-1, P29366 (P29366 55-141): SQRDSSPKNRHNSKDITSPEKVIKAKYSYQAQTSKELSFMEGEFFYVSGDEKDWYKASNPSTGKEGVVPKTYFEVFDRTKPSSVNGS

| SPOT intensity | Binder |
| --- | --- |
| 0 | B1 |
| 0 | B2 |
| 0 | B3 |
| 1 | B4 |

These binders were tested against T18, Lsb3, P43603 (assay: SPOT array). Conditions: median of control spots 406.

| SPOT intensity | Binder |
| --- | --- |
| 0 | B1 |
| 0 | B2 |
| 6 | B3 |
| 4 | B4 |

Each binder was assayed against T19, Pin3, Q06449 (assay: SPOT array). Conditions: median of control spots 2171.

| SPOT intensity | Binder |
| --- | --- |
| 0 | B1 |
| 8 | B2 |
| 0 | B3 |
| 7 | B4 |

The binders below were run against Bem1-2, P29366 (assay: SPOT array). Conditions: median of control spots 4347.
Chain of Bem1-2, P29366 (P29366 139-227): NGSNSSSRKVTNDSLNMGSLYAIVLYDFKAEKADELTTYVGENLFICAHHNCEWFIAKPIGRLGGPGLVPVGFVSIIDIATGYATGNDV

| SPOT intensity | Binder |
| --- | --- |
| 0 | B1 |
| 94 | B2 |
| 6 | B3 |
| 0 | B4 |

The binders below were run against T20, Bzz1-1, P38822 (assay: SPOT array). Conditions: median of control spots 4446.

| SPOT intensity | Binder |
| --- | --- |
| 0 | B1 |
| 0 | B2 |
| 0 | B3 |
| 0 | B4 |

The binders below were run against T21, Pex13, P80667 (assay: SPOT array). Conditions: median of control spots 1341.

| SPOT intensity | Binder |
| --- | --- |
| 4 | B1 |
| 10 | B2 |
| 1 | B3 |
| 3 | B4 |
